Assay results published in PMC4117452, “Immunolocalization of Anti-Hsf1 to the Acetabular Glands of Infectious Schistosomes Suggests a Non-Transcriptional Function for This Transcriptional Activator”.

Target: T1, MBP-SmHsf1 (Schistosoma mansoni, UniProt G4VTC5 1-658)
T1 sequence: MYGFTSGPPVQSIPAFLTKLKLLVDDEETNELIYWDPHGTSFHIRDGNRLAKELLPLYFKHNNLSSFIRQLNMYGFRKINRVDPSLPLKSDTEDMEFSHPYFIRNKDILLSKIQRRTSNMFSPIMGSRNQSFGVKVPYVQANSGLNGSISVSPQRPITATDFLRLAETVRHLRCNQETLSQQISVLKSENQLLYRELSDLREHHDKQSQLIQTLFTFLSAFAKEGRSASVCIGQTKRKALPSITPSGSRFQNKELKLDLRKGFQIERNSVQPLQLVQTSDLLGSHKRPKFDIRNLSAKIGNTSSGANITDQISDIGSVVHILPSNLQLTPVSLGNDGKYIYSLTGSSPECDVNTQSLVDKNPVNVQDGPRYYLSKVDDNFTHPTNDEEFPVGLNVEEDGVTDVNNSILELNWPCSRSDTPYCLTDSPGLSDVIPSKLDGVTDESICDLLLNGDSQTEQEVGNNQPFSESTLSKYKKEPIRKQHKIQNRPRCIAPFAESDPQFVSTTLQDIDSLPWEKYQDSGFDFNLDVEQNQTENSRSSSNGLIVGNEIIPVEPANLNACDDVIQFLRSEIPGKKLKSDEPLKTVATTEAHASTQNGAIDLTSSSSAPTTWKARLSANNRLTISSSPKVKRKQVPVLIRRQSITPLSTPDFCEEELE
Test: competition; EMSA vs oKI068(ds), 250-fold unlabeled; 'great affinity'; LightShift EMSA binding buffer with glycerol, MgCl2, poly-dIdC, NP-40 (concentrations, pH and temperature not stated), 30 min; 5% native PAGE, 0.5x TBE
Details: protein: recombinant; tags: N-terminal MBP (pMAL-c5X); chain copies: 3; blunt

B1: oKI073/074 consensus HSE (dsDNA)
DNA 1: GATCGTCATAGAAAGTTCTAGAACGATC
DNA 2: GATCGTTCTAGAACTTTCTATGACGATC
  binding result: binds
